Source: paper PMC4703952, “Probing Intersubunit Interfaces in AMPA-subtype Ionotropic Glutamate Receptors” (Scientific Reports, 2016)
Where a chain is given by its changes, count along the chain named. Numbers in names are those of the source.

B1: GluA2_(C589A-Thr) K663C (receptor, rat)
chain: VSSNSIQIGGLFPRGADQEYSAFRVGMVQFSTSEFRLTPHIDNLEVANSFAVTNAFCSQFSRGVYAIFGFYDKKSVNTITSFCGTLHVSFITPSFPTDGTHPFVIQMRPDLKGALLSLIEYYQWDKFAYLYDSDRGLSTLQAVLDSAAEKKWQVTAINVGNINNDKKDETYRSLFQDLELKKERRVILDCERDKVNDIVDQVITIGKHVKGYHYIIANLGFTDGDLLKIQFGGANVSGFQIVDYDDSLVSKFIERWSTLEEKEYPGAHTATIKYTSALTYDAVQVMTEAFRNLRKQRIEISRRGNAGDCLANPAVPWGQGVEIERALKQVQVEGLSGNIKFDQNGKRINYTINIMELKTNGPRKIGYWSEVDKMVVTLTELPSGNDTSGLENKTVVVTTILESPYVMMKKNHEMLEGNERYEGYCVDLAAEIAKHCGFKYKLTIVGDGKYGARDADTKIWNGMVGELVYGKADIAIAPLTITLVREEVIDFSKPFMSLGISIMIKKPQKSKPGVFSFLDPLAYEIWMCIVFAYIGVSVVLFLVSRFSPYEWHTEEFEDGRETQSSESTNEFGIFNSLWFSLGAFMQQGADISPRSLSGRIVGGVWWFFTLIIISSYTANLAAFLTVERMVSPIESAEDLSKQTEIAYGTLDSGSTKEFFRRSCIAVFDKMWTYMRSAEPSVFVRTTAEGVARVRKSKGKYAYLLESTMNEYIEQRKPCDTMKVGGNLDSKGYGIATPKGSSLGTPVNLAVLKLSEQGVLDKLKNKWWYDKGECGAKDSGSKEKTSALSLSNVAGVFYILVGGLGLAMLVALIEFCYKSRAEAKRMKVAKNPQNINPSSSQNSQNFATYKEGYNVYGIESVKIGLVPR
notes: signal peptide in the construct; AMPA receptor subunit GluA2, flip form (GluA2i), rat, NP_058957, full length including the native signal peptide; extra residues left from the thrombin cleavage site at the distal C-terminus after digestion; Single cysteine substitution in m1, LBD dimer-dimer interface; source: HEK293 GnTI- cells, baculovirus-transduced (BacMam), purified (streptactin resin, …)
B2: GluA2_(C589A-Thr) R628C (receptor, rat)
chain: B1 chain with R628C, C663K
notes: signal peptide in the construct; AMPA receptor subunit GluA2, flip form (GluA2i), rat, NP_058957, full length including the native signal peptide; extra residues left from the thrombin cleavage site at the distal C-terminus after digestion; Single cysteine substitution in m1, LBD-TMD linker region (M3-S2 linker); source: HEK293 GnTI- cells, baculovirus-transduced (BacMam), purified (streptactin …)
B3: GluA2_(C589A-Thr) A665C (receptor, rat)
chain: B1 chain with C663K, A665C
notes: as for B1
B4: GluA2_(C589A-Thr) A621C (receptor, rat)
chain: B1 chain with A621C, C663K
notes: signal peptide in the construct; AMPA receptor subunit GluA2, flip form (GluA2i), rat, NP_058957, full length including the native signal peptide; extra residues left from the thrombin cleavage site at the distal C-terminus after digestion; source: HEK293 GnTI- cells, baculovirus-transduced (BacMam), purified (streptactin resin, thrombin digestion, SEC Superose 6); not shown: eGFP, C-terminal, …
B5: GluA2_(C589A-Thr) I664C (receptor, rat)
chain: B1 chain with C663K, I664C
notes: as for B1
B6: GluA2_(C589A-Thr) (receptor, rat)
chain: B1 chain with C663K
notes: signal peptide in the construct; AMPA receptor subunit GluA2 (GluRB, GluR2), flip form (GluA2i), rat, NP_058957, full length including the native signal peptide; extra residues left from the thrombin cleavage site (GLVPRG) at the distal C-terminus after digestion; Tetrameric membrane protein in C12M detergent with lipid; Purified under reducing conditions; also called WT; parent; source: HEK293 …

Experiments:
Test in all cases: SEC; FSEC of ~10% of the protein dialysed into non-reducing buffers with the various ligands; 150 mM NaCl, 20 mM Tris-HCl pH 8.0, 1 mM C12M, lipid
[1] = target: GluA2_(C589A-Thr) I209C (rat)
[2] = target: GluA2_(C589A-Thr) I211C (rat)
[3] = target: GluA2_(C589A-Thr) V215C (rat)
[4] = target: GluA2_(C589A-Thr) G212C (rat)
[5] = target: the molecule itself

Row | Molecule | stoichiometry N [5] | also measured
1 | GluA2_(C589A-Thr) I209C (receptor) |  | stoichiometry N [1]: 4
2 | GluA2_(C589A-Thr) I211C (receptor) |  | stoichiometry N [2]: 4
3 | GluA2_(C589A-Thr) V215C (receptor) |  | stoichiometry N [3]: 4
4 | GluA2_(C589A-Thr) G212C (receptor) |  | stoichiometry N [4]: 4
5 | B1 | 4 | 
6 | B2 | 4 | 
7 | B3 | 4 | 
8 | B4 | 4 | 
9 | B5 | 4 | 
10 | B6 | 4 | 
